Laboratory results from patent EP1828247B1.

Target: West Nile virus strain USA99b (strain 385-99), whole virus (West Nile virus strain 385-99 (USA99b))
Test: ELISA on irradiated WNV; antibody at 20.000 µg/ml

Substance: anti-rabies virus antibody (negative control)
- OD 492nm: 0.051 OD 492nm
